According to a protein production outcome set (Wang et al. 2014):

Assay: label from the status in PepcDB records

| Sequence | protein production |
| --- | --- |
| MLPAQDTRGKGLSLARRLYRSRTLGLALGFFCVAAGMAPLQPAPWVWGFMLFNAFAWPHLAYQWARLARVPFRAEYRNLLVDSLLGGFWVGAMHFNPLPLATTLGMMAMNNMALGGLRFFLAGSAAQVLGMGVALWLFGPAFVAQTTPEQVYACLPMLTLYPLALGYICYQQAVTLGRHKRELLALSRTDSLTGLLNHGAWKDQLEIEFQRCKRQAHGGAIALIDIDHFKAINDTYGHVAGDVVLRQLSKLLRQNLRVSDQAGRYGGDEFCVILPDVPLAHAAELMEALRGRFGALGYEQSPALQVSLSIGLAAFNPLHDDAMGWLNDADQALYAAKTCGRNNVTCHPPEQPSRRLLNSL | failed |
| MEDAAEQERGFHVITIRKQIVTAALPLQDHWLPLSNLDLLLPPVQISVCFCYKKPRHFLSVAETLKASLAEALVSYYAFAGELVKNSSGEPEILCNNRGVDFLEAVADVELRELNLHDPDESIAKLVPKKKHGVIAIQVTQLKCGSIVVGCTFDHRIADAFSMNMFLVSWAEISRFNAPISSVPSFRRSILNPRRPLIIDSSIDKMYMPVTSLPLPQETTNDLDNILTSRIYYIKENALEDLQTLASGSSPKTGYGQRTKLESFSAFLWKLVAKHTGRDLVSNKNSKMGIVVDGRRRLMEKEDNTYFGNVLSIPFGGQSIDDLIDKPLSWVTNEVHRFLEEAVTKEHFLNLIDWVEIHRPIPAVSRIYSTGTDDGPAFVVSSGRSFPVNKVDFGWGLPVFGSYHFPWEGSSGYVMPMPSPVDDGNGDWVVYLHLTKGQLKFIEEEASHVLKPIDNYYLKINTIN | failed |
| MKVINVDVAIIGTGTAGMGAYRAAKKHTDKVVLIEGGAYGTTCARVGCMPSKLLIAAADASYHASQTDLFGIQVDRISVNGKAVMKRIQTERDRFVGFVVESVESFDEQDKIRGFAKFLDEHTLQVDDHSQVIAKRIVIATGSRPNYPEFLAAAGSRLLTNDNLFELNDLPKSVAVFGPGVIGLELGQALSRLGVIVKVFGRSGSVANLQDEEMKRYAEKTFNEEFYFDAKARVISTIEKEDAVEVIYFDKSGQKTTESFQYVLAATGRKANVDKLGLENTSIELDKKNSPLFDELTLQTSVDHIFVAGDANNTLTLLHEAADDGKVAGTNAGAYPVIAQGQRRAPLSVVFTEPQVASVGLSLRQIEDLYADQDAANYVVGQVSFEGQGRSRVMGKNKGLLNVYADRTSGEFLGAEMFGPAAEHIGHLLAWARQQQMTVQAMLTMPFYHPVIEEGLRTALRDAQQKLAIEKHDMNEFIMTHDNAMKLVI | not failed |
| MKNLLKRYVSIKNIIKVIELDFFANLKLRYYKLAMKLFKIEDEKFDEILLKAGMNAVSSTYLPVVFLTSIILGLIIFIIFLIVFNIFYAIFGLIGGIFIVILIGVLYPYVLAEEKAKSIDENLPYAFAFISALSSANIPVVEIFTSLSKEDIYGGMSKEAKEIVKDTKVFNYDIITTFLRRARITPSKKLSSVYYNIVASLIVGAEMKNIFHEIYERLMEDRKLELFEAIEKVEILSEFYVIACGMIPLFVVMTVPVASSISAILQTASLFGDPKLLPLTFYLWVPIASIIFMGLVYGILPKDFKLNVSLLDVLKEFDEPEIEGIKMKFKWKPVHFITLFFWMLSIISFMLFFIRKSIFKFHGTDFLMFGILFLILPFILTSYWHFIIENQKERYYPIFLNDLTMAVRSGMDIIRAMQVCARTNYGPLTKIVKKMAIQMSWGRPVNEVFADLERTEKSLIAKRIASILKECAVSGGDVKDILTSVTVHAYKLSEMKREISARQFIYVVVIYLSFFLYIGTSYIMVHSLLPTLLKNIHGLSVEFYKNYLFQGILIYSIFSGASLGILTERSIIAGIKHILLMLIVGYMLFKFYIGG | failed |
| MRHYETMFILKPTLVEEEIKSKIEFYKEVITKHHGVIETSLDMGMRNLAYEIKKHKRGYYYVAYFKAEPSMIVELERLYRINEDVLRFIVIKYESKKEVEAWHALVDRANKKPSHAKEKHEKTEHTHSHHTEEAESVGSHSE | failed |
